# Laboratory results published in patent US7488588 (LICENTIA, dated 2009).
# T1: rat GDNF (glial cell line-derived neurotrophic factor) (rat, UniProt Q07731 78-211)
# T1 sequence (looked up): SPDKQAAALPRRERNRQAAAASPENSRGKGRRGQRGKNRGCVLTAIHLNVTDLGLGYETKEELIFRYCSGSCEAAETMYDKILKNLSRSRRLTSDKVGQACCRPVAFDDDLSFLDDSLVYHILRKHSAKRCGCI
# T2: human neurturin (NRTN) (human, UniProt Q99748 96-197)
# T2 sequence (looked up): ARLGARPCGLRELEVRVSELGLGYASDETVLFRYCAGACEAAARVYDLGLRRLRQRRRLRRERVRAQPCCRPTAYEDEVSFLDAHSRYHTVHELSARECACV
# B1: human GFRα4, GPI-anchored isoform a (GFRα4a) (receptor)
# chain: VGGNRCVDAAEACTADARCQRLRSEYVAQCLGRAAQGGCPRARCRRALRRFFARGPPALTHALLFCPCAGPACAERRRQTFVPSCAFSGPGPAPPSCLEPLNFCERSRVCRPRLLAFQVSCTPAPSAPDGCLLDQGARCLRAYAGLVGTAVTPNYVDNVSARVAPWCDCGASGNRREDCEAFRGLFTRNRCLDGAIQAFASGWPPVLLDQLNPQGDPEHSLLQVSSTG
# modifications: GPI anchor (released by PI-PLC)
# notes: Expressed from full-length GFRA4a cDNA (pCR3.1) in mouse Neuro-2a cells (endogenous Ret), in CHO cells (no Ret) or microinjected into mouse SCG neurons; also called hGFRα4; GFRA4a
# B2: human persephin (PSPN) (ligand, UniProt O60542 61-156, looked up)
# chain: ALSGPCQLWSLTLSVAELGLGYASEEKVIFRYCAGSCPRGARTQHGLALARLQGQGRAHGGPCCRPTRYTDVAFLDDRHRWQRLPQLSAAACGCGG
# notes: Cross-linking gels show monomer (approx. 14-16 kDa) and dimer (32 kDa) bands; also called unlabeled PSPN
# Assays:
# [1] = molecular target: T1, rat GDNF (glial cell line-derived …); test: displacement of 0.9 nM [125I]PSPN from GFRA4a-transfected Neuro-2a cells
# Experimental: (§1) J. Milbrandt and E. M. Johnson, Jr.). […] was calculated using Cheng-Prusoff equation (McGonigle, et al., 1994).
# [2] = molecular target: T2, human neurturin (NRTN); test: as above
# Experimental: as §1
# [3] = molecular target: B2; test: displacement of [125I]PSPN from GFRA4a-transfected Neuro-2a cells; KD calculated using Cheng-Prusoff equation
# Experimental: as §1
# [4] = molecular target: B1; test: displacement of 0.9 nM [125I]PSPN by unlabeled PSPN from GFRA4a-transfected Neuro-2a cells (endogenous Ret), 4 hrs on ice
# Experimental: as §1
binding result [1],binding result [2],Kd [3] [pM],IC50 [4] [pM],Binder
no binding (tested: up to 300 nM),no binding (tested: up to 200 nM),~100,,B1
,,,1000,B2
